This data set concerns the target p53 (UniProt P04637 1-393). The data set can be described thus: EMSA; 100 ng p53, 100 nM probe; EMSA: 100 ng recombinant p53, 100 nM annealed biotin probe; binding buffer, salt, pH and temperature not given (ref 63). To be noted: protein: commercial, chain copies: 4, label: 3'-biotin. On the technique in general: In EMSA bound probe runs differently from free probe, usually more slowly.

Sequence of p53 (P04637 whole entry): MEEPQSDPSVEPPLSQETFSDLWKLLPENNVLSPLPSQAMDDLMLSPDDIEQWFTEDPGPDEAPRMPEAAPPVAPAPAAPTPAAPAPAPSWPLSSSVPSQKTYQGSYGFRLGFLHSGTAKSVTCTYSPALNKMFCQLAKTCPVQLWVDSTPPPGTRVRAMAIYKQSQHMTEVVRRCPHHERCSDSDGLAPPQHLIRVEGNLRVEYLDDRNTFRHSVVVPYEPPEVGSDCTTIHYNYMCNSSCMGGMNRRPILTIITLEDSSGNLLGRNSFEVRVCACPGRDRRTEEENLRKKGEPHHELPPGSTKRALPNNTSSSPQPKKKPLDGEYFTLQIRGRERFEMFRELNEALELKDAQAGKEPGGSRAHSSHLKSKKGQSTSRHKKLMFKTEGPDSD

B1: hBD3 -1339 mutant probe (dsDNA)
DNA 1: TGACTGTCGACCCATCTACCTGGCCCTAAATTG
DNA 2: CAATTTAGGGCCAGGTAGATGGGTCGACAGTCA
Consider B1, for which the binding result is given as “no binding”.

B2: hBD3 promoter -1339 p53 probe (dsDNA)
DNA 1: TGACTGTCTGCCCATCTACCTGGCCCTACAT
DNA 2: ATGTAGGGCCAGGTAGATGGGCAGACAGTCA
In the case of B2, the binding result was “binds”.

The values are drawn from publication PMC5053661, “Human papillomavirus oncogenic E6 protein regulates human β-defensin 3 (hBD3) expression via the tumor suppressor protein p53”.
